Kd data for one molecule are collected here from article PMC5716252, “Heterologous expression, purification and function of the extracellular domain of human RANK” (BMC Biotechnology, 2017).

This assay addresses T1, RANK-N, soluble form of the extracellular domain of human RANK (human, UniProt Q9Y6Q6 29-213, N-glycosylated (28 kDa band shifts to about 21 kDa with PNGase F); predicted sites Asn 105 and Asn 174, not verified).
T1 construct: Codon-optimised gene cloned into pPIC9K cut with XhoI and NotI; no tag is named; also called recombinant RANK-N
T1 sequence (looked up): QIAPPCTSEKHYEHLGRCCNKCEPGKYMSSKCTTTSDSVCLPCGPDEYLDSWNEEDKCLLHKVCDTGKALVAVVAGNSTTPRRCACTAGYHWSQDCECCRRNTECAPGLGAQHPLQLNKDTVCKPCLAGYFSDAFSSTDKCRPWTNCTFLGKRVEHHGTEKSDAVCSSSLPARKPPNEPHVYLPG
Kind of assay: SPR; Biacore T100; RANKL amine-coupled to a CM5 chip; RANK-N (32.5 to 1000 nM) injected at 30 μl/min, 25 °C, contact 210 s, dissociation 400 s; running buffer 3 mM EDTA, 150 mM NaCl, 10 mM HEPES, 0.05% Surfactant P20; steady-state responses fit to the Hill equation. The note with it: both partners purified.

B1: RANKL (R&D Systems, 462-TEC-010/CF) (ligand, UniProt O35235 139-316, looked up)
chain: FSGAPAMMEGSWLDVAQRGKPEAQPFAHLTINAASIPSGSHKVTLSSWYHDRGWAKISNMTLSNGKLRVNQDGFYYLYANICFRHHETSGSVPTDYLQLMVYVVKTSIKIPSSHNLMKGGSTKNWSGNSEFHFYSINVGGFFKLRAGEEISIQVSNPSLLDPDQDATYFGAFKVQDID
notes: RANKL, recombinant protein bought from R&D Systems, catalogue 462-TEC-010/CF; As far as I recall, catalogue 462-TEC is R&D's recombinant mouse TRANCE/RANKL (soluble extracellular part, carrier-free); source: bought: R&D Systems (462-TEC-010/CF)
Consider B1, for which the Kd was 2620 nM.
